Data reported in PMC2063869 (The Journal of Cell Biology, 2006).

Legend:
MBP-Apm1 = biological target: T1, MBP-Apm1 (S. cerevisiae, UniProt Q00776 1-475); test: pull-down
T1 sequence (looked up): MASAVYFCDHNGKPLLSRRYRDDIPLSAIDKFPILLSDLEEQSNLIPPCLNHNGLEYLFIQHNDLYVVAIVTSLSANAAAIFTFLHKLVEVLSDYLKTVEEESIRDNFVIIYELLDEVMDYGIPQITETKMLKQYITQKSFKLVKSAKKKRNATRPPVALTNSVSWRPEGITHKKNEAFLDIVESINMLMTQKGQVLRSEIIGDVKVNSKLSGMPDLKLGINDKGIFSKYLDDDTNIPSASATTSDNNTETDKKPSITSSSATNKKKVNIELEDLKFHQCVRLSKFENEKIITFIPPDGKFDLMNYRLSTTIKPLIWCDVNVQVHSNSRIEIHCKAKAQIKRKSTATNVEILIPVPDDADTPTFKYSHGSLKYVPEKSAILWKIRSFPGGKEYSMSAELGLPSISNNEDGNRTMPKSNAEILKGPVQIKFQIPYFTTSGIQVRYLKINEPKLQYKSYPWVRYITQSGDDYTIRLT

MBP–Apm1-Δ2–158 = biological target: T2, MBP–Apm1-Δ2–158 (S. cerevisiae, UniProt Q00776 1-475, Δ2–158); test: pull-down
T2 sequence (looked up): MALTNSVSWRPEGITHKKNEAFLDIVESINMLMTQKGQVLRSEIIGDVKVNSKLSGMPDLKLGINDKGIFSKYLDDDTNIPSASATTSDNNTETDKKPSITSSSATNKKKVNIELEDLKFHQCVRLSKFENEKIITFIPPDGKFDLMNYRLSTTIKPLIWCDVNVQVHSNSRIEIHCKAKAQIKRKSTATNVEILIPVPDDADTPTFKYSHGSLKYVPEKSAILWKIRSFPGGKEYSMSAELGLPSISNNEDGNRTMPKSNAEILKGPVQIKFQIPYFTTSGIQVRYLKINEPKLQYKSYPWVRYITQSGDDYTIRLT

binding result (MBP-Apm1): binds
binding result (MBP–Apm1-Δ2–158): binds
B1: Ste13-GST (Ste13p cytosolic domain, residues 1–118, fused to the NH2 terminus of GST) (domain or fragment, S. cerevisiae, UniProt P33894 1-118, looked up)
chain: MSASTHSHKRKNSHLFPQRKSSNSSMDKPFFPNNDSVANTDPQSNENGHTINEIRPTEATIDVTDVPQTPFLQEQYSMRPRRESFQFNDIENQHHTHSFFSVNKFNRRWGEWSLPEKR
